Legend:
hippocampal neurons [1] = assay: Neurite outgrowth assay, hippocampal neurons; type: cell-based, rat; conditions: hippocampal neurons from 18-day embryos
Procedure: The tissue culture wells and glass cover slips (1.1 cm diameter) were incubated overnight at 4° C. with 0.01% poly-L-lysine (PLL) and washed three times with distilled water. L1-Fc or CHL1-Fc diluted in Ca/Mg-free Hank's Balanced Salt Solution were applied overnight at 4° C., at the concentrations indicated in the text. The wells and coverslips were washed twice with Hank's and once with seeding medium just before plating cells.
(§1) Hippocampal neurons were prepared from 18-day rat embryos as described (Lochter, A., et al (1991); Brewer, G. J., et al (1993)). Neurons were re-suspended and plated in serum-free Dulbecco's modified Eagle's medium/Nutrient Mix F12 (Life Technologies, Inc.) supplemented with N2 components, 33 mM D-glucose, 1 mM pyruvate, 1 mg/ml BSA, and 5 mM Hepes.
Cerebellar granule cells and hippocampal neurons were seeded into pro-treated 96-well tissue culture plates at a density of 1×10^4 cells or 5×10^3 cells per well, respectively, in 100 μl medium. Soluble fusion proteins were added, when used, 2 hours after seeding the cells, to avoid effects on initial adhesion. […] The lengths of individual neurite were analyzed and quantified with an IBAS image analysis system (Kontron). […] For each cell measured, the total length of all neurites was determined. In each experiment, 50 cells in each of three wells were analyzed. […]

hippocampal neurons [2] = assay: Cell survival assay (MTT), embryonic hippocampal neurons; type: cell-based, rat; conditions: 5 days in culture
Procedure: as §1

cerebellar granule cells = conditions: 5 days in culture

B1: CHL1-Fc: extracellular domain of mouse CHL1 fused to the Fc portion of human immunoglobulin IgG1 (protein)
chain: EIPLSVQQVPTIVKQSYVQVAFPFDEYFQIECEAKGNPEPIFSWTKDDKPFDLSDPRIIAANNSGTFKIPNEGHISHFQGKYRCFASNRLGTAVSEEIEFIVPGVPKFPKEKIEPIDVEEGDSIVLPCNPPKGLPPLHIYWMNIELEHIEQDERVYMSQRGDLYFANVEENDSRNDYCCFAAFPKLRTIVQKMPMKLTVNSSNSIKQRKPKLLLPPAQMGSLSAKTVLKGDTLLLECFAEGLPTPHIQWSKPGSELPEGRATIEVHEKTLKIENISYQDRGNYRCTANNLLGKASHDFHVTVEEPPRWKKKPQSAVYSTGSSGILLCEAEGEPQPTIKWRLNGLPIEKHPFPGDFMFPREISFTNLLFNHTGVYQCEASNIHGTILANANIDVIDVIPLIKTKNEENYATVVGYSAFLHCEYFASPKATVVWEVADETHPLEGDRYHTHENGTLEIYRTTEEDAGSYSCWVDNAMGKAVITANLDIRNATKLRVSPKNPRIPKSHVLELYCESQCDSHLKHSLKLSWSKDGEAFEMNGTEDGRIVIDGAYLTISNITAEDQGVYSCSAQTSLDSTSEKTQVTVLGVPDPPETFTCQKDKNRSVRLLREAGDDHNSKSASTIVEFEGNREEPGKWEELTRVQGEETDVVLSLAPYVRYQFRVTAVNEVGRSHASLPSDHHETPPAAPDKNPQNIRVQASQPKEMIIKWEPLKSMEQNGPGLEYKVSWKPQGAPEEWEEEIVTNHTLRVMTPTVYAPYDVKVQAINQLGSSPDPQPVTLYSGEDYPSTAPVIQRVDVMNSTLVKVTWSSIPKETVHGLLRGYQINWWKTKSLLDGRTHPKEVNILRFSGQRNSGMVPSLDPFSEFHLTVLAYNSKGAGPESEPYIFQTPEGVPEQPSFLKVIKVDKDTATLSWGLPKKLNGNLTGYLLQYQIINDTYELGELNEINVTTPSKSSWHLSNLNSTTKYKFYLRACTSRGCGKPISEEGATLGEGSKGIRKITEGVNVTQKIHPVEVLVPGAEHIVHLMTKNWGDNDSIFQDVIETRGREYAGLYDDISTQGW
modifications: left off: a dimerising Fc or GST
notes: extracellular domain of mouse CHL1 fused to the Fc portion of human immunoglobulin IgG1
neurite outgrowth (hippocampal neurons [1]): a stimulation was observed
concentration of maximal effect on survival (hippocampal neurons [2]): 1 µg/mL
survival (hippocampal neurons [2]): enhanced survival
morphological features of cultures (cerebellar granule cells): denser, generally healthier-looking cultures
